In article PMC4447949, “Structures of the Ets Protein DNA-binding Domains of Transcription Factors Etv1, Etv4, Etv5, and Fev” (The Journal of Biological Chemistry, 2015):

Columns and labels:
[1] = target: the molecule itself; assay: crystal structure; DNA-free crystals; dimer seen between adjacent molecules in the crystal, with an intermolecular disulfide bond; protein purified with TCEP
Etv1 Y329S-P427S = Etv1 Y329S-P427S (human, UniProt P50549 326-429, Y329S;P427S); assay: X-ray crystallography; 2.9 A; EMSA: 50 mM Tris-HCl pH 7.5, 50 mM NaCl, 2 mM MgCl2, 0.01% Tween 20, 5% glycerol, 1 h at room temperature; proteins reduced with 10 mM TCEP unless stated; 10% native PAGE; settings: protein: recombinant; tags: N-terminal His6 removed by TEV (leaves SM); blunt
Fev Ets domain = target: T1, Fev Ets domain (human, UniProt Q99581 42-141); assay: X-ray crystallography; text cites 2YPR for the complex, but Fig. 1 uses 2YPR as Fev and Fig. 7 gives 3ZP5 as Fev-dsDNA; EMSA: 50 mM Tris-HCl pH 7.5, 50 mM NaCl, 2 mM MgCl2, 0.01% Tween 20, 5% glycerol, 1 h at room temperature; proteins reduced with 10 mM TCEP unless stated; 10% native PAGE; settings: protein: recombinant; tags: N-terminal His6 removed by TEV (leaves SM); chain copies: 2; blunt
T1 sequence: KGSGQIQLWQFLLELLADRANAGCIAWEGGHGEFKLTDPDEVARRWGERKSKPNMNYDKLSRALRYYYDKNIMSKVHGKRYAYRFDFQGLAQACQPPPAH

[2] = target: the molecule itself; assay: SEC; protein expressed in Rosetta-gami 2 E. coli and purified under nonreducing conditions (no TCEP); Superdex S75 or 200, 20 mM HEPES pH 7.5, 500 mM NaCl, 5% glycerol; dimer checked by SDS-PAGE with or without DTT and by mass spectrometry
Etv5 Ets domain = Etv5 Ets domain (human, UniProt P41161 365-462); assay: X-ray crystallography; 1.95 A; Ca2+ bound near alpha4; EMSA: 50 mM Tris-HCl pH 7.5, 50 mM NaCl, 2 mM MgCl2, 0.01% Tween 20, 5% glycerol, 1 h at room temperature; proteins reduced with 10 mM TCEP unless stated; 10% native PAGE; settings: protein: recombinant; tags: N-terminal His6 removed by TEV (leaves SM); 3' overhang 1 nt on each strand
Etv4 Ets domain = Etv4 Ets domain (human, UniProt P43268 338-470); assay: X-ray crystallography; 2.8 A; 8 complexes per asymmetric unit; EMSA: 50 mM Tris-HCl pH 7.5, 50 mM NaCl, 2 mM MgCl2, 0.01% Tween 20, 5% glycerol, 1 h at room temperature; proteins reduced with 10 mM TCEP unless stated; 10% native PAGE; settings: protein: recombinant; tags: N-terminal His6 removed by TEV (leaves SM); 3' overhang 1 nt on each strand

B1: Fev Ets domain (amino acids 42-141) (domain or fragment, human, UniProt Q99581 42-141, looked up)
chain: KGSGQIQLWQFLLELLADRANAGCIAWEGGHGEFKLTDPDEVARRWGERKSKPNMNYDKLSRALRYYYDKNIMSKVHGKRYAYRFDFQGLAQACQPPPAH
notes: Fev (Fifth Ewing Variant, PET-1), Ets domain construct, amino acids 42-141; TEV cleavage leaves SM before the insert; also called Fifth Ewing Variant; PET-1; source: E. coli BL21 (DE3) Rosetta-R3, purified (Ni-IDA, TEV cleavage, SEC); not shown: His6, N-terminal, cleaved
binding result [1]: binds

B2: 10-bp crystallization duplex (dsDNA)
DNA 1: ACCGGAAGTG
DNA 2: CACTTCCGGT
binding result (Etv1 Y329S-P427S): binds
binding result (Fev Ets domain): binds

B3: Etv5 Ets domain (amino acids 365-462) (domain or fragment, human, UniProt P41161 365-462, looked up)
chain: RGSLQLWQFLVTLLDDPANAHFIAWTGRGMEFKLIEPEEVARRWGIQKNRPAMNYDKLSRSLRYYYEKGIMQKVAGERYVYKFVCDPDALFSMAFPDN
notes: Etv5 (ERM), Ets domain construct, amino acids 365-462; TEV cleavage leaves SM before the insert; The limits are those told for the crystallisation construct; also called ERM; Etv5 WT; source: E. coli BL21 (DE3) Rosetta-R3, purified with TCEP (Ni-IDA, TEV cleavage, SEC); E. coli Rosetta-gami 2, purified without TCEP; not shown: His6, N-terminal, cleaved
stoichiometry N [2]: 2

B4: Etv4 Ets domain (amino acids 338-470) (domain or fragment, human, UniProt P43268 338-470, looked up)
chain: RGALQLWQFLVALLDDPTNAHFIAWTGRGMEFKLIEPEEVARLWGIQKNRPAMNYDKLSRSLRYYYEKGIMQKVAGERYVYKFVCEPEALFSLAFPDNQRPALKAEFDRPVSEEDTVPLSHLDESPAYLPELA
notes: Etv4 (PEA3), Ets domain construct, amino acids 338-470; TEV cleavage leaves SM before the insert; The limits are those told for the crystallised construct; also called PEA3; Etv4 WT; source: E. coli BL21 (DE3) Rosetta-R3, purified with TCEP (Ni-IDA, TEV cleavage, SEC); E. coli Rosetta-gami 2, purified without TCEP; not shown: His6, N-terminal, cleaved
stoichiometry N [2]: 2

B5: Etv1^Y329S-P427S Ets domain (amino acids 326-429) (domain or fragment, human, UniProt P50549 326-429, looked up)
chain: GPTSQRRGSLQLWQFLVALLDDPSNSHFIAWTGRGMEFKLIEPEEVARRWGIQKNRPAMNYDKLSRSLRYYYEKGIMQKVAGERYVYKFVCDPEALFSMAFSDN
notes: Etv1 (Ets translocation variant 1, ER81), Ets domain construct, amino acids 326-429, with two primer-incorporated mutations; A selenomethionine form was used for phasing of the DNA complex; also called PCR mutant Ets domain; ER81; source: E. coli BL21 (DE3) Rosetta-R3, purified (Ni-IDA, TEV cleavage, SEC); not shown: His6, N-terminal, cleaved
binding result [1]: binds

B6: Etv1 wild-type Ets domain (amino acids 326-429) (domain or fragment, human, UniProt P50549 326-429, looked up)
chain: GPTYQRRGSLQLWQFLVALLDDPSNSHFIAWTGRGMEFKLIEPEEVARRWGIQKNRPAMNYDKLSRSLRYYYEKGIMQKVAGERYVYKFVCDPEALFSMAFPDN
notes: Same limits as the crystallised Y329S-P427S construct (PDB 4AVP, 4BNC); TEV cleavage leaves SM before the insert; From Rosetta-gami 2 under nonreducing conditions it is a disulfide-linked dimer; also called WT; WT dimer; source: E. coli BL21 (DE3) Rosetta-R3, purified with TCEP (Ni-IDA, TEV cleavage, SEC); E. coli Rosetta-gami 2, purified without TCEP; not shown: His6, N-terminal, cleaved
stoichiometry N [2]: 2

B7: 9-bp crystallization duplex with overhangs (dsDNA)
DNA 1: ACCGGAAGTG
DNA 2: ACTTCCGGTC
binding result (Etv5 Ets domain): binds
binding result (Etv4 Ets domain): binds
